In one test the target is T1, ABI1 (Arabidopsis thaliana, UniProt P49597).
T1 construct: Full length ABI1 and ABI2 were cloned into a modified pSUMO vector; made in house; host or cells: E. coli BL21 (DE3) pLysS
T1 sequence (P49597 1-434): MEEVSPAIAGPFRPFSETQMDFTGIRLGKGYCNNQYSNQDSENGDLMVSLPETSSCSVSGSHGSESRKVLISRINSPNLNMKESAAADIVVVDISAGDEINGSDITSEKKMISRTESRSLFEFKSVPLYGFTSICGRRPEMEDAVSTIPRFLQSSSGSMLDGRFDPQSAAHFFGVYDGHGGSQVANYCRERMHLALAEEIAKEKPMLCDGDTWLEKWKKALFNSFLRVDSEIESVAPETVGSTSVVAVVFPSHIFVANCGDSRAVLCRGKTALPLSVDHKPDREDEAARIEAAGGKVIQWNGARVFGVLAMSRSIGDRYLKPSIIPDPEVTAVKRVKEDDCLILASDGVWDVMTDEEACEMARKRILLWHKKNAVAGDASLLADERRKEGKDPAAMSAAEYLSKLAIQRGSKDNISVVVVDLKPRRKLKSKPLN
Description: In vitro PP2C phosphatase (pNPP) receptor activation assay with ABI1. Format: biochemical. The conditions noted are these: 600 nM PP2C, 0-4800 nM receptor, no ABA. As to the method:
Full length ABI1 and ABI2 were cloned into a modified pSUMO vector (LifeSensors Inc, USA) vector yielding 6×His-SUMO fusion proteins; GST-HAB1 was expressed and purified as previously described (Park et al., 2009). Mutant receptors were cloned into pET28 yielding 6×His-fusion proteins. […]. The cultures were pre-incubated 2 hours at 30° C. and, for PP2C expression, media was supplemented with 4 mM MnCl2 one hour after inoculation. After pre-incubation, IPTG was added (1 mM) and cells were induced at 15° C. for 16 hours, after which they were collected by centrifugation, resuspended in 5 ml Buffer A (50 mM NaH2PO4, 300 mM NaCl) +10 mM imidazole, pH 8.0 and stored at −80° C. For purification, cells were thawed, sonicated on ice (60 seconds) and a cleared lysate was then applied a 1 ml-bed volume column of Ni-NTA (Qiagen, USA), washed with 20 column volumes of Buffer A+30 mM imidazole and bound protein eluted with 1 ml of Buffer A+250 mM imidazole. For receptors, the elutate was dialyzed against TBS and for PP2Cs, fusion proteins were desalted by passage over a Sephadex G50 column.
The purified receptors and phosphatases were then used in receptor assays where receptor activation is indicated by inhibition of phosphatase activity, as inferred from initial reaction velocities for PP2C-mediated hydrolysis of the synthetic phosphatase substrate pNPP in reactions containing 600 nM PP2C and either 0, 600, 1200, 2400 or 4800 nM receptor. The receptor assay buffer consisted of 33 mM Tris-OAc, pH 7.9, 66 mM KOAc, 0.1% BSA, 25 mM Mn(OAc)2, 0.1%13-ME and 50 mM pNPP. Immediately after mixing proteins and substrates, reactions were monitored for hydrolysis of pNPP at A405 at ˜2 minutes intervals using a Wallac plate reader. Reaction progressions were plotted, initial velocities calculated and converted to specific activities by comparison to a standard curve for 4-nitrophenol made in the same buffer system. PP2C activity values shown in figures are expressed as %-control phosphatase activity levels, as measured under identical reaction conditions in the absence of receptor protein. The average specific activity level of GST-HAB1, 6×His-SUMO-ABI1 and 6×His-SUMO-ABI2 utilized in our experiments was 4500 (GST-PP2C) or 2500 (SUMO-PP2C) μmol/min/mg, when assayed using the phosphatase substrate pNPP in the absence of PYR1 or other receptors.

Another test deals with aba2-1 mutant seeds. Nature of the test: Germination of aba2-1 background seeds on paclobutrazol or NaCl. Format: in vivo, Arabidopsis. The conditions noted are these: 35S-driven transgene, germination 72 hours. An excerpt:
As a further test of the ability of PYL2^CA3 to activate ABA signaling in vivo, we examined the ability of this allele to revert phenotypes caused by ABA deficiency, reasoning that effective activation of the ABA pathway should suppress phenotypes observed in the aba2 mutant. […] To test this, we examined the germination of various genotypes on paclobutrazol, an inhibitor of GA biosynthesis. Wild-type seed germination is blocked by paclobutrazol treatment but aba2 mutants germinate due to defects in ABA-induced seed dormancy. We also examined the germination of various genotypes in the presence of NaCl, which, like paclobutrazole, inhibits seed germination in an ABA- and aba2-dependent manner (Gonzalez-Guzman M. et al. (2002) Plant Cell 14(8):1833-1846; Leon-Kloosterziel K M, et al. (1996) Plant J 10 (4):655-661). […] Thus, expression of PYL2^CA3 in developing seeds is sufficient to activate an ABA-dependent physiological process despite the depleted ABA levels present in the aba2 background.
Germination tests on paclobutrazol (Wako Chemicals, Japan) and NaCl were conducted as following. Columbia, aba2-1, aba2-1; 35S::GFP-PYL2 and aba2-1; 35S::GFP-PYL2″^3 seeds were surface sterilized and plated onto ⅓ MS agar media containing 25, 50 or 100 μM paclobutrazol or 0, 50, 200, 250 mM NaCl. Control wells contained ⅓ MS agar and 0.1% DMSO, the carrier solvent for paclobutrazol. The seeds were stratified for four days in darkness and then transferred to continuous illumination at room temperature (23° C.). Germination was assayed after 72 hours; seeds showing radicals at least ½ seed length or greater were scored as positive. Each experiment was performed in triplicate; experiments were performed on seeds that were ˜6-months post-harvest.

B1: PYL2^CA3: PYL2 mutant (H65P, V87F, F165V); expressed in plants as 35S-driven GFP fusion (protein)
chain: HHHHHHMSSSPAVKGLTDEEQKTLEPVIKTYHQFEPDPTTCTSLITQRIHAPASVVWPLIRRFDNPERYKPFVKRCRLISGDGDVGSVREVTFISGLPASTSTERLEFVDDDHRVLSFRVVGGEHRLKNYKSVTSVNEFLNQDSGKVYTVVLESYTVDIPEGNTEEDTKMVVDTVVKLNLQKLGVAATSAPMHDDE
With B1, in the test with ABI1, the “constitutive receptor activity on ABI1 in the absence of ABA” value was “active towards multiple PP2Cs”. For the same molecule, in the test with aba2-1 mutant seeds, the “NaCl resistance of aba2 mutant seed germination” value is “suppressed” and the “paclobutrazol resistance of aba2 mutant seed germination” value is given as “suppressed”.

(Values after US10704056B2, “Constitutively active ABA receptor mutants” (The Regents of the University of California, priority 2011, dated 2020).)
